Values belong to the binder of their own block, whether it stands above or below them.
Assays:
human PD-L1 (human) [1] = biological target: human PD-L1 (human) (UniProt Q9NZQ7); experiment: flow cytometry, HEK293 cells transfected with full-length human PD-L1, PE anti-human Fc
Target sequence in this assay (Q9NZQ7 19-290): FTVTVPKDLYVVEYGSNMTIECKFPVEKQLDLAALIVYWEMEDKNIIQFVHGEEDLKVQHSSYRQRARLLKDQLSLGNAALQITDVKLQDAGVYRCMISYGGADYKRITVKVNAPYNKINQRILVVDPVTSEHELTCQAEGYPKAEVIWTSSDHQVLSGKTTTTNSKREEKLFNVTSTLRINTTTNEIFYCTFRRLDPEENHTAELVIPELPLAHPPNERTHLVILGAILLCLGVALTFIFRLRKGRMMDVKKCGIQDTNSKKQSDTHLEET

CD28 (human) [2] = biological target: CD28 (human) (UniProt P10747)
CD28 (human) [3] = biological target: CD28 (human) (UniProt P10747); remark: listed apart in the source
human PD-L1 (human) [4] = biological target: human PD-L1 (human) (UniProt Q9NZQ7)
Target sequence in this assay (Q9NZQ7 19-290): as above

CD28 (human) [5] = biological target: CD28 (human) (UniProt P10747); experiment: flow cytometry, Jurkat cells (CD28)
human CTLA-4 (human) [6] = biological target: human CTLA-4 (human) (UniProt P16410); experiment: flow cytometry, CHO cells stably expressing CTLA4
human PD-L1 (human) [7] = biological target: human PD-L1 (human) (UniProt Q9NZQ7); experiment: flow cytometry, CHO cells stably expressing PD-L1
Target sequence in this assay (Q9NZQ7 19-290): as above

human CTLA-4 (human) [8] = biological target: human CTLA-4 (human) (UniProt P16410); experiment: flow cytometry, CHO/CTLA4 cells; MFI over CD80 WT IgV-Fc
human PD-L1 (human) [9] = biological target: human PD-L1 (human) (UniProt Q9NZQ7); experiment: flow cytometry, CHO/PD-L1 cells; MFI over CD80 WT IgV-Fc
Target sequence in this assay (Q9NZQ7 19-290): as above

CD28 (human) [10] = biological target: CD28 (human) (UniProt P10747); experiment: flow cytometry, Jurkat cells (CD28); MFI over CD80 WT IgV-Fc
CD28 (human) [11] = biological target: CD28 (human) (UniProt P10747); remark: listed apart in the source
human PD-L1 (human) [12] = biological target: human PD-L1 (human) (UniProt Q9NZQ7); remark: listed apart in the source
Target sequence in this assay (Q9NZQ7 19-290): as above

human PD-L1 (human) [13] = biological target: human PD-L1 (human) (UniProt Q9NZQ7); experiment: flow cytometry, HEK293 cells transfected with human PD-L1
Target sequence in this assay (Q9NZQ7 19-290): as above

CD28 (human) [14] = biological target: CD28 (human) (UniProt P10747); remark: listed apart in the source
human PD-L1 (human) [15] = biological target: human PD-L1 (human) (UniProt Q9NZQ7); remark: listed apart in the source
Target sequence in this assay (Q9NZQ7 19-290 limits assumed): as the sequence (Q9NZQ7 19-290) above

human PD-L1 (human) [16] = biological target: human PD-L1 (human) (UniProt Q9NZQ7); experiment: flow cytometry, MFI on PD-L1 cells over MFI on CD28 cells

human CTLA-4 (human), sequence (P16410 36-223): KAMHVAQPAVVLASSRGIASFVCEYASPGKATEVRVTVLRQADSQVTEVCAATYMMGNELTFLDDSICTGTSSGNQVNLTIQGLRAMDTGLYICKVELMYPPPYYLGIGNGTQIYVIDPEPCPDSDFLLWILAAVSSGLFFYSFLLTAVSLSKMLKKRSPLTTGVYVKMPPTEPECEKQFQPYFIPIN

MFI at 22.2 nM (human PD-L1 (human) [1]): 1580 MFI
B1: variant CD80 IgV-Fc E35G/K54E/A71D/L72P (Fc fusion)
chain: VIHVTKEVKEVATLSCGHNVSVEELAQTRIYWQKGKKMVLTMMSGDMNIWPEYENRTIFDITNNLSIVILDPRPSDEGTYECVVLKYEKDAFKREHLAEVTLSVKAD

Fold increase in IL2 reporter signal (Jurkat/IL2 reporter assay) (fold vs WT CD80 IgV-Fc) (CD28 (human) [2]): 0.07
B2: variant CD80 IgV-Fc E35D/T57I/L70Q/A71D (Fc fusion)
chain: VIHVTKEVKEVATLSCGHNVSVEELAQTRIYWQKDKKMVLTMMSGDMNIWPEYKNRIIFDITNNLSIVIQDLRPSDEGTYECVVLKYEKDAFKREHLAEVTLSVKAD

IL2-luciferase reporter, fold increase in RLU over WT CD80-IgV-Fc at 5.0 nM (CD28 (human) [3]): 4.8 fold
IL2-luciferase reporter, fold increase in RLU over WT CD80-IgV-Fc at 5.0 nM (human PD-L1 (human) [4]): 4.8 fold
MFI at 33.3 nM (CD28 (human) [5]): 7250 MFI
MFI at 33.3 nM (human CTLA-4 (human) [6]): 17000 MFI
MFI at 33.3 nM (human PD-L1 (human) [7]): 68000 MFI
Fold change to WT CD80 (human CTLA-4 (human) [8]): 12.3 fold
Fold change to WT CD80 (human PD-L1 (human) [9]): 412 fold
Fold change to WT CD80 (CD28 (human) [10]): 71.1 fold
B3: variant CD80 IgV-Fc (inert) H18L/A26N/D46E/V68M/A71G/D90G (Fc fusion)
chain: VIHVTKEVKEVATLSCGLNVSVEELNQTRIYWQKEKKMVLTMMSGEMNIWPEYKNRTIFDITNNLSIMILGLRPSDEGTYECVVLKYEKGAFKREHLAEVTLSVKAD

RLU at 5.0 nM: Fold Increase over WT CD80-IgV-Fc (CD28 (human) [11]): 3.9 fold
RLU at 5.0 nM: Fold Increase over WT CD80-IgV-Fc (human PD-L1 (human) [12]): 3.9 fold
B4: CD80 IgV-Fc E35D/M47L/Y53F/V68M/A71G/K93R/E95V (Fc fusion)
chain: VIHVTKEVKEVATLSCGHNVSVEELAQTRIYWQKDKKMVLTMMSGDLNIWPEFKNRTIFDITNNLSIMILGLRPSDEGTYECVVLKYEKDAFRRVHLAEVTLSVKAD

MFI at 22.2 nM (human PD-L1 (human) [13]): 5160
B5: variant CD80 IgV-Fc I30T/L70R (Fc fusion)
chain: VIHVTKEVKEVATLSCGHNVSVEELAQTRTYWQKEKKMVLTMMSGDMNIWPEYKNRTIFDITNNLSIVIRALRPSDEGTYECVVLKYEKDAFKREHLAEVTLSVKAD

IL2-luciferase reporter, fold increase in RLU over WT CD80-IgV-Fc at 5.0 nM (CD28 (human) [3]): 4.7 fold
IL2-luciferase reporter, fold increase in RLU over WT CD80-IgV-Fc at 5.0 nM (human PD-L1 (human) [4]): 4.7 fold
MFI at 33.3 nM (CD28 (human) [5]): 2450 MFI
MFI at 33.3 nM (human CTLA-4 (human) [6]): 16200 MFI
MFI at 33.3 nM (human PD-L1 (human) [7]): 52400 MFI
Fold change to WT CD80 (human CTLA-4 (human) [8]): 11.7 fold
Fold change to WT CD80 (human PD-L1 (human) [9]): 318 fold
Fold change to WT CD80 (CD28 (human) [10]): 24 fold
B6: variant CD80 IgV-Fc (inert) H18V/A26P/E35D/M47L/V68M/A71G (Fc fusion)
chain: VIHVTKEVKEVATLSCGVNVSVEELPQTRIYWQKDKKMVLTMMSGDLNIWPEYKNRTIFDITNNLSIMILGLRPSDEGTYECVVLKYEKDAFKREHLAEVTLSVKAD

IL-2 luciferase reporter, fold increase over WT CD80-IgV-Fc at 5.0 nM (CD28 (human) [14]): 1.82 fold
IL-2 luciferase reporter, fold increase over WT CD80-IgV-Fc at 5.0 nM (human PD-L1 (human) [15]): 1.82 fold
Fold change to WT CD80 (CD28 (human) [5]): 77.8 fold
MFI at 33.3 nM (CD28 (human) [5]): 3410 MFI
Fold change to WT CD80 (human CTLA-4 (human) [6]): 20.3 fold
MFI at 33.3 nM (human CTLA-4 (human) [6]): 27600 MFI
Fold change to WT CD80 (human PD-L1 (human) [7]): 539 fold
MFI at 33.3 nM (human PD-L1 (human) [7]): 23500 MFI
Ratio of PDL1:CD28 (human PD-L1 (human) [16]): 6.9
B7: variant CD80 IgV-Fc E35D/M47L/V68M/D90G (Fc fusion)
chain: VIHVTKEVKEVATLSCGHNVSVEELAQTRIYWQKDKKMVLTMMSGDLNIWPEYKNRTIFDITNNLSIMILALRPSDEGTYECVVLKYEKGAFKREHLAEVTLSVKAD

Source: US20220177587A1, “METHODS AND USES OF VARIANT CD80 FUSION PROTEINS AND RELATED CONSTRUCTS” (Alpine Immune Sciences, Inc., priority 2018, published 2022)
